Assay results published in patent publication US20150374794A1 (Novo Nordisk, published 2015).
Numbered stars: 1 amine (or outer) side, 2 acyl side, 3 side chain; on linkers, the order of the positions; unused ones are H or OH. Square brackets hold non-standard residues; d marks the D form. Side chains are listed from the residue outwards. Ends that are not written are not given here. * marks the point of attachment. C18 diacid = O=C(O)CCCCCCCCCCCCCCCCC(=O)*; γGlu = O=C(O)[C@H](CCC(=O)[*:2])N[*:1]; AEEA = NCCOCCOCC(=O)O; Aib = CC(C)(N)C(=O)O

Target: human glucagon receptor (human, UniProt P47871 26-477)
Assay: cell-based or functional assay

Chain of human glucagon receptor (P47871 26-477): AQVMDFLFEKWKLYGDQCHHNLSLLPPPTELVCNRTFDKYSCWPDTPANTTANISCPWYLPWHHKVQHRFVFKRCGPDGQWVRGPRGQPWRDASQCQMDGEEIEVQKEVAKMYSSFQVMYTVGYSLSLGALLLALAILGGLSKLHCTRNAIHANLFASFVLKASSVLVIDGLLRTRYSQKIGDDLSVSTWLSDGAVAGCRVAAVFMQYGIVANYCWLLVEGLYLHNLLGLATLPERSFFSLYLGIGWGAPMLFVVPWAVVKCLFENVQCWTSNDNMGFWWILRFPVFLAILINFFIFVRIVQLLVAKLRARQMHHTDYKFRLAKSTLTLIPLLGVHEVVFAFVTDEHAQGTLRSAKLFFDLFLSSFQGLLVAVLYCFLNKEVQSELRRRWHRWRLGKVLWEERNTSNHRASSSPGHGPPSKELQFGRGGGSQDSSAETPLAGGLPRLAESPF

B1: N^ε28-[(4S)-4-carboxy-4-[[(4S)-4-carboxy-4-[[2-[2-[2-[[2-[2-[2-[[(4S)-4-carboxy-4-(17-carboxyheptadecanoylamino)butanoyl]amino]ethoxy]ethoxy]acetyl]amino]ethoxy … (peptide)
peptide: H[Aib]HGTFTSDLSKYLESKRAREFVQWLLK([γGlu-γGlu-AEEA-AEEA-γGlu-C18 diacid])T-NH2
modifications: N-terminus assumed
SMILES: CC(C)C[C@H](NC(=O)[C@H](Cc1ccc(O)cc1)NC(=O)[C@H](CCCCN)NC(=O)[C@H](CO)NC(=O)[C@H](CC(C)C)NC(=O)[C@H](CC(=O)O)NC(=O)[C@H](CO)NC(=O)[C@@H](NC(=O)[C@H](Cc1ccccc1)NC(=O)[C@@H](NC(=O)CNC(=O)[C@H](Cc1c[nH]cn1)NC(=O)C(C)(C)NC(=O)[C@@H](N)Cc1c[nH]cn1)[C@@H](C)O)[C@@H](C)O)C(=O)N[C@@H](CCC(=O)O)C(=O)N[C@@H](CO)C(=O)N[C@@H](CCCCN)C(=O)N[C@@H](CCCNC(=N)N)C(=O)N[C@@H](C)C(=O)N[C@@H](CCCNC(=N)N)C(=O)N[C@@H](CCC(=O)O)C(=O)N[C@@H](Cc1ccccc1)C(=O)N[C@H](C(=O)N[C@@H](CCC(N)=O)C(=O)N[C@@H](Cc1c[nH]c2ccccc12)C(=O)N[C@@H](CC(C)C)C(=O)N[C@@H](CC(C)C)C(=O)N[C@@H](CCCCNC(=O)CC[C@H](NC(=O)CC[C@H](NC(=O)COCCOCCNC(=O)COCCOCCNC(=O)CC[C@H](NC(=O)CCCCCCCCCCCCCCCCC(=O)O)C(=O)O)C(=O)O)C(=O)O)C(=O)N[C@H](C(N)=O)[C@@H](C)O)C(C)C
EC50 GlucR, CRE luciferase reporter gene assay in BHK cells: 1.1 pM

B2: N^ε28-[(4S)-4-carboxy-4-[[(4S)-4-carboxy-4-[[(4S)-4-carboxy-4-(17-carboxyheptadecanoylamino)butanoyl]amino]butanoyl]amino]butanoyl]-[Aib2,His3,Leu10,Glu15,Lys17 … (peptide)
peptide: H[Aib]HGTFTSDLSKYLESKRAREFVQWLLK([γGlu-γGlu-γGlu-C18 diacid])T-NH2
modifications: N-terminus assumed
SMILES: CC(C)C[C@H](NC(=O)[C@H](Cc1ccc(O)cc1)NC(=O)[C@H](CCCCN)NC(=O)[C@H](CO)NC(=O)[C@H](CC(C)C)NC(=O)[C@H](CC(=O)O)NC(=O)[C@H](CO)NC(=O)[C@@H](NC(=O)[C@H](Cc1ccccc1)NC(=O)[C@@H](NC(=O)CNC(=O)[C@H](Cc1c[nH]cn1)NC(=O)C(C)(C)NC(=O)[C@@H](N)Cc1c[nH]cn1)[C@@H](C)O)[C@@H](C)O)C(=O)N[C@@H](CCC(=O)O)C(=O)N[C@@H](CO)C(=O)N[C@@H](CCCCN)C(=O)N[C@@H](CCCNC(=N)N)C(=O)N[C@@H](C)C(=O)N[C@@H](CCCNC(=N)N)C(=O)N[C@@H](CCC(=O)O)C(=O)N[C@@H](Cc1ccccc1)C(=O)N[C@H](C(=O)N[C@@H](CCC(N)=O)C(=O)N[C@@H](Cc1c[nH]c2ccccc12)C(=O)N[C@@H](CC(C)C)C(=O)N[C@@H](CC(C)C)C(=O)N[C@@H](CCCCNC(=O)CC[C@H](NC(=O)CC[C@H](NC(=O)CC[C@H](NC(=O)CCCCCCCCCCCCCCCCC(=O)O)C(=O)O)C(=O)O)C(=O)O)C(=O)N[C@H](C(N)=O)[C@@H](C)O)C(C)C
EC50 GlucR, CRE luciferase reporter gene assay in BHK cells: 2.9 pM
